In the test the target is T1, Aβ 1-40 peptide (UniProt P05067 672-711).
T1 construct: amyloid beta peptide Aβ 1-40, cut product of the amyloid precursor protein (APP); the methods call it a bought peptide, the results a 'recombinant peptide'; also called recombinant peptide; immobilised Aβ; source: bought: America Peptide, Sunnyvale, CA
Nature of the test: ELISA; Aβ1-40 peptide coated on Maxisorp plates (0.1 µg/ml, bicarbonate buffer pH 9.6); antibodies serially diluted in PBS/1 % BSA, 1 h at room temperature; detected with biotinylated anti-mouse IgG and streptavidin poly-HRP; relative affinity. Particulars: both partners purified. (An ELISA detects its analyte on a solid surface through an enzyme-linked reagent.)

B1: mC2 (murine parent antibody of Crenezumab), recombinant with mouse IgG2a constant region (antibody, V domains shown)
VH: EVQLVESGGGLVQPGGSLKLSCAASGFTFSSYGMSWVRQTPDKRLELVASINSNGGSTYYPDSVKGRFTISRDNAKNTLYLQMSSLKSEDTAMYYCASGDYWGQGSTLTVSS
VL: DVVMTQTPLSLPVSLGDQASISCRSSQSLVYSNGDTYLHWYLQKPGQSPKLLIYKVSNRFSGVPDRFSGSGSGTDFTLKISRVEAEDLGVYFCSQSTHVPWTFGGGTKLEIKR
notes: heavy chain variable domain of mC2; mouse IgG2a heavy chain constant domain; light chain variable domain of mC2; mouse kappa light chain constant domain; mouse IgG2a, kappa; variable domain joined directly to the constant domain (synthetic genes); also called murine version of Crenezumab; Crenezumab-mC2; source: HEK293 6E cells, transient transfection (pTT5), purified from culture media …
Consider B1, for which the EC50 worked out at 0.0174 nM.

Broadly, the EC50 is the midpoint of the concentration-response curve. Low readings indicate greater potency, high ones weaker potency.
